Measured values from publication PMC5354831.

Biological target: HER3 (human (endogenous in LIM1215)) (UniProt P21860)
Test: Collaborative Enzyme Enhanced Reactive-immunoassay (CEER); proximity-mediated immunoassay in a multiplexed array format on LIM1215 cell lysates, done by Prometheus Laboratories; cells control-treated or treated 24h with cetuximab (50 ug/mL), lapatinib (1 uM), gefitinib, cetuximab + trastuzumab (20 ug/mL) or cetuximab + pertuzumab (10 ug/mL); read-out in computed units (CU)

UniProt P21860, sequence (P21860 20-1342): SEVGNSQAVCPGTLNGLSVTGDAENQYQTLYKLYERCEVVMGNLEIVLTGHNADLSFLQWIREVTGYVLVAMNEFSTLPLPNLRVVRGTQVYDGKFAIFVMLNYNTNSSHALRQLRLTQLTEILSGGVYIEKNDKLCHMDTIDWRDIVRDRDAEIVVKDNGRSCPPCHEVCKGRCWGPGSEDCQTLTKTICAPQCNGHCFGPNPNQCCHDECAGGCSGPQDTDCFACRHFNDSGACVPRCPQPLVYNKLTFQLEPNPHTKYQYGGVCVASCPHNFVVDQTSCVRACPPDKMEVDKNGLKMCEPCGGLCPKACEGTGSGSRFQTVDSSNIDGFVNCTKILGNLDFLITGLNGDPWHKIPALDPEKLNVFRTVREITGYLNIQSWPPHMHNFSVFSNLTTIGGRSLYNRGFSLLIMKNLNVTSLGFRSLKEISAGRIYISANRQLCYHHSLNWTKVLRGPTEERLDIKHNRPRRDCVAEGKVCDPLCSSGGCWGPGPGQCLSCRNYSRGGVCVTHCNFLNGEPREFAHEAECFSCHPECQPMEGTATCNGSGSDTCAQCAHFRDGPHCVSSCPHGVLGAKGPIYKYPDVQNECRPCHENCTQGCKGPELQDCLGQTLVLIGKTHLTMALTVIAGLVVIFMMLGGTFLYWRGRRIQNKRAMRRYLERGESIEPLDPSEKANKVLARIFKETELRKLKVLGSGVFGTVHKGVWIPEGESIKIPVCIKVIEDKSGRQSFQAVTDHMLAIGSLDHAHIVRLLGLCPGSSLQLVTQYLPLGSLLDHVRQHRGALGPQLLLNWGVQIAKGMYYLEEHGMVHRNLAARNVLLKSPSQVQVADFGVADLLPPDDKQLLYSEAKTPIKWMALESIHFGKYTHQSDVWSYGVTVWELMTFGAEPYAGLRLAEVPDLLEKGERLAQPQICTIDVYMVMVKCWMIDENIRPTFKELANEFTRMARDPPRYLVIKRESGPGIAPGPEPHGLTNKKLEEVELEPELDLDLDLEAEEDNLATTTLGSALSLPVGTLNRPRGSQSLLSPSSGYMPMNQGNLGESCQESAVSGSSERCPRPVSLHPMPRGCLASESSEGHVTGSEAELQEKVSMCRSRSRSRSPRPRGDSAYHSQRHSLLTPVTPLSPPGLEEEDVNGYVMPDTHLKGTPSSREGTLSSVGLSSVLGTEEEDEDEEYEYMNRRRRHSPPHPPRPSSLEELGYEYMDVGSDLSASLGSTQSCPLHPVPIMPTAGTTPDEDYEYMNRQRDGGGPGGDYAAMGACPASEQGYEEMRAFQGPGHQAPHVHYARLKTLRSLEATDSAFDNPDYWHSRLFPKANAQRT
PI3K p85, sequence (P27986 whole entry): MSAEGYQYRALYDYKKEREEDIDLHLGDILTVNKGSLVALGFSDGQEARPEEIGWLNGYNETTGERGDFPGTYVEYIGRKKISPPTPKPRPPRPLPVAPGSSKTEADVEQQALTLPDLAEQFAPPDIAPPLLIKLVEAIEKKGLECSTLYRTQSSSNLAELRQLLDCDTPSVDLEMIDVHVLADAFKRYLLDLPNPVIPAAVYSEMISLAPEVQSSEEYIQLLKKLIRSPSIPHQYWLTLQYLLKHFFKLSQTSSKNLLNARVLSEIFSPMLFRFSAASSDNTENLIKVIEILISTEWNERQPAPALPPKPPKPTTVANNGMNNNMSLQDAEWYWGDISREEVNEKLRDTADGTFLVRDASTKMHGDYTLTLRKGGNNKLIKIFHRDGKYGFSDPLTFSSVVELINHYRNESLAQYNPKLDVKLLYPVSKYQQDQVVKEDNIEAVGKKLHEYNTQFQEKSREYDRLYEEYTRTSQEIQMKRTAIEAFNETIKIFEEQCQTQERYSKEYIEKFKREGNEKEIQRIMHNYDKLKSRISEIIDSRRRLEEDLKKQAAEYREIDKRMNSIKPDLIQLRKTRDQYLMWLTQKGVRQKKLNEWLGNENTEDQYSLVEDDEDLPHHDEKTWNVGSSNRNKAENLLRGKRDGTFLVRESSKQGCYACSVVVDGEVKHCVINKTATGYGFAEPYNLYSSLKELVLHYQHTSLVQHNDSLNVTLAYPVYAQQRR

fold increase in HER3:PI3K p85 binding, 24h cetuximab against control treatment: 5 fold
Substance: PI3K p85 (from UniProt P27986 1-724) (natural protein)
